A short description of this series: yeast display, Sf9 membrane polyspecificity reagent, FACS + sequencing; frameworks hold sequencing errors. The method in brief:
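Nanobodies from a synthetic yeast display library (Saccharomyces cerevisiae BJ5465), induced 36–48 hours with galactose, were stained 1 hour at 4 °C with 10% biotinylated, detergent-solubilized Sf9 membrane reagent, enriched on streptavidin microbeads, then FACS-sorted. Anti-HA (expression) and streptavidin (reagent binding) fluorescence set low and high (top ~1%) gates. Polyreactivity labels come from the gate of origin. Genes were colony-PCR amplified, MiSeq 2 × 250 sequenced and filtered by CDR length.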
For “QVQLVESGGGLVQAGGSLRLSCASSGFSFDYYVMGWYRQAPGKEMELVASNRSRGASTHYADSVKGRFTISRDNAKNTVYLQMNRLKTEDTAVYYCAKGGGYRRAARSFGGGDYWGQGTHVTVSS”, the “polyreactivity (PSR sort gate)” value is “low polyreactivity”. Regarding “QVQLVESGGGLVQAGGSLRLSCASSGFTFARYAMGWYRPAPGKEREFVAAIDKSGGSTYYADSVTGRFTISRDNAKNTVYLQMNSLKPEDTAVYYCAAGFGRVFSSIYGYWGQGTQVTVSS”, the “polyreactivity (PSR sort gate)” value is “high polyreactivity”. Regarding “QVQLVESGGGLVQAGGSLRLSCASSGFTFGWYDMGWYRQAPGKERELVASISWSGSSTYYADSVKGRFTISRDNAKNTVYLQLNSLKPEDTAVYYCNAVSVDYVNWYWYDYWGQGTQVTVSS”, the “polyreactivity (PSR sort gate)” value is “high polyreactivity”.

Consider “QVQLVESGGGLVQAGGSLRLSCASSGFTFKFNAMGWYRPAPGKERELVAAISQSGVNTYYADSVKGRFTISRDNAKNTVFLLMNSLKPEDTAVYYCAADFSAYGYDYWGQGTQVTVSS”, for which the “polyreactivity (PSR sort gate)” value is on record as “low polyreactivity”. Under “QVQLVESGGGLVQAGGSLRLSCASSGFTFRSYAMGWYRQAPGKERELVAAIRWSGDSTYYADSVKGRFTISRDNAKNTVYLQMTSLKPEDTAVYYCAAGTYLRYGYWGQGTQVTVSS” stands “high polyreactivity”; under “QVQLVESGGGLVQAGGSLRLSCASSGFTFVYNAMGWYRHAPGKERELVAAITSGGNTYYADSVKGRFTISRDNAKNTVYLQMNSLIPEDTAVYYCAKRGYGRYYAYDYWGQGTQVTVSS”, “high polyreactivity”; under “QVQLVESGGGLVQAGGSLRLSCASSGFTFWYYAMGWYRQAPGKERELVASISRTGGTTYYADSVKGRFTISRDNAKNTVYLQMNSLKPEDTAVYYCNARPKVYYREYDYWGQGTQVSVSS”, “high polyreactivity”.

In the case of “QVQLVESGGGLVQAGGSLRLSCASSGFTFYYYAMGWYRQAPGKEMELVAAIDTSDGSTYYADSVKGRFTISRDNAKNTVYLQMNSLKPEDTAVYYCAAEVDWVPFLLDYWGQGTQVTVSS”, the “polyreactivity (PSR sort gate)” value was “low polyreactivity”. On to “QVQLVESGGGLVQAGGSLRLSCASSGFTSRYVMGWYRQAPGKEMELVASISRSGGSTYYADSVKGRFTISRDNAKNTVYLQMNSLKPEDTAVYYCAADATPTDMDYLGQGTQVTVSS”, for which the “polyreactivity (PSR sort gate)” value is on record as “high polyreactivity”.

For “QVQLVESGGGLVQAGGSLRLSCASSGGTFTAYAMGWYSQAPGKERELVAAITTNGGRTYYADSVKGRFTISRDNAKNTVYLQMNSLKPEDTAVDYCNRVSLSRRWFLYDYWGQGTQVTVSS”, the “polyreactivity (PSR sort gate)” value is listed as “high polyreactivity”. For “QVQLVESGGGLVQAGGSLRLSCASSGIIFHYYAKGWYRQAPGKERELVATISWDGGNTYYADSVKGRFTISRDNAKNRVYLQMNSLKPEDTAVYYCNVYDKAPAYAYWGQGTQVTVSS” the value was “low polyreactivity”. With “QVQLVESGGGLVQAGGSLRLSCASSGIIFYTYAMGWYRQAPGKERELDAAITQTSAPTYYADSVKGRFTISRDNAKNTVYLQMNSLNPEDTAVYYCAAVPSYRVQGGRMYYWGQGTQVTVSS”, the “polyreactivity (PSR sort gate)” value is reported as “high polyreactivity”.

As to “QVQLVESGGGLVQAGGSLRLSCASSGISFRRNAMGWYRQAPGKERELVAISTICGSTYYADSVNGRFTIARDNAKNTVYLQMNTLKPEDTAVYYCAAEGKSTGVYLDGGEGFAYDYWGQGTQVTVSS”, the “polyreactivity (PSR sort gate)” value was “low polyreactivity”. As for “QVQLVESGGGLVQAGGSLRLSCASSGITFDKYAMGWYRQAPGKERELVAAINRSGGSTYYADSVKGRFTISRDNAKNTVYLQINSLKPEDTAVYYCAAVKPPDYYYWGQGTQVTVSS”, the “polyreactivity (PSR sort gate)” value is on record as “high polyreactivity”.

As for “QVQLVESGGGLVQAGGSLRLSCASSGITFPGNAMGWYRQAPGKERELVAGISDGDSTNYADSVKGRFTISRDNAKNTVYLQMNSLKPEVTAVYYCNAQGTTETSGGGFFRGMDYWGQGTQVTVSS”, the “polyreactivity (PSR sort gate)” value is recorded as “low polyreactivity”.

As to “QVQLVESGGGLVQAGGSLRLSCASSGITFPNYAMGWSRQAPGNERELVAAISSSGGSTYYADSVKGRFTISRDKAKNTGYLQMNSLKPEDTAVYYCATAINVYPRMDYGYWGQGTQVTVSS”, the “polyreactivity (PSR sort gate)” value was “low polyreactivity”. Regarding “QVQLVESGGGLVQAGGSLRLSCASSGLIFSIYAMGWYRQAPGKERELVAAIRWSGGSTYYADSVKGRFTISRDNAKNTVYLQMNSLKPEDTADYYCNADITVYVRIYQYNYWGQGTQVTVSS”, the “polyreactivity (PSR sort gate)” value is on record as “low polyreactivity”. Consider “QVQLVESGGGLVQAGGSLRLSCASSGLISRRNAMGWYRQAPGKERELVAAISTGSSTNYADSVKGRFTISRDNAKNTVYLQMNSLKPEDTAVYYCAATQYWWSTLGIRDDYWGQGTQVTVSS”, for which the “polyreactivity (PSR sort gate)” value is on record as “low polyreactivity”. For “QVQLVESGGGLVQAGGSLRLSCASSGLTFHFYTMGWYRQAPGKERELVASITSGGITYYADSVKGRFTISRDNAKNTVYLQMNSLKPEDTAVYYCAATYQFIYTDFDYWGQGTQVTVSS” the value was “high polyreactivity”; for “QVQLVESGGGLVQAGGSLRLSCASSGLTFTPNAMGWYRQAPGKEREFVAAITWRGGRTYYADSVKGRFTISRDNAKNTVYFQMKSLNPEDTAVYYCAVTYRPTYQLDYWGQGTQVTVSS”, “high polyreactivity”; for “QVQLVESGGGLVQAGGSLRLSCASSGNIFVPNAMGGYRQAPGKERELVAAIRRGGSTNYADSVKGRFTISRDNAQNTVDGQMNSLKPEDTAVYYCAKSRVSFTDLEGYYWGQGTQVTVSS”, “low polyreactivity”.

Take “QVQLVESGGGLVQAGGSLRLSCASSGRIFGLYAMGWYRQAPGKERELVAAITLSGDGTDYADSVKGRFTISRDNAKNTVYLQMNSLKPEDTAVYYCAKVGQYWWNMDYWGQGTQVTVSS”: the “polyreactivity (PSR sort gate)” value is “low polyreactivity”.

“QVQLVESGGGLVQAGGSLRLSCASSGRIFLVYAMGWYRQAPGKERELVAAISYSGGRTYYADSVKGRFTISRDNAKNTVYLQMNSLKPEDTAVYYCAAKRITYYGGGRFYYWGQGTQVTVSS”: the “polyreactivity (PSR sort gate)” value is recorded as “high polyreactivity”. Under “QVQLVESGGGLVQAGGSLRLSCASSGRIFLYNAMGWYRQAPGKERELVAVISYGGGTYYADSVKGRFTISRDNAKNTVYLQMISLKPEDSAVYYCAAEKYSSSRYWPYNYWGQGTQVTVSS” stands “high polyreactivity”; under “QVQLVESGGGLVQAGGSLRLSCASSGRNFTRNTMGWYRQAPGKERELVAAISGRGGSTYYADSVKGRFTISRDNAMKTVYLQMNSLKPEDTAVDYCAADGVYRGGYDYWGQGTQVTVSS”, “high polyreactivity”. Under “QVQLVESGGGLVQAGGSLRLSCASSGRSLSVYAMGRYRQAPGKERDLVADITWRGGSTYYADSVKGRFTISRDNAKNTVYLQMNSLKPEDTAVYYCAAADSTWFDWGNYWYYYWGQGTQVSVSS” stands “low polyreactivity”; under “QVQLVESGGGLVQAGGSLRLSCASSGRTFLVNAMGSYRPAPGKERELVAAISQSGGSTYYADSVKGRFTISRDNAKNTVYLQMNCLKPVDTEVYYCAAELINDYYWGQGTQVSVSS”, “low polyreactivity”; under “QVQLVESGGGLVQAGGSLRLSCASSGRTFRGYVMGWYRQAPGKERELVASISYSGGSTYYADSVKGRFTISRDNAKNTVYLQMNSLKPEDTAVYYCAARKGYDQYRWRYSQNNYWGQGTQVTVSS”, “high polyreactivity”. Under “QVQLVESGGGLVQAGGSLRLSCASSGRTFYYYAIGWYRQSPGKETELVAVIRSSGDSTYYADSVKGRFTISRDNAKNTVSLQMNSLKPEDNAVYYCAAEAPSRCYSWHPRYYFWGQGTQVTVSS” stands “low polyreactivity”.

Take “QVQLVESGGGLVQAGGSLRLSCASSGSIFFLYTMGWYRQAPGKERELVAAIDSGGSTNYADSVKGRFTISRDNAKNTVYLQMNSLKPEDTAVYYCNADGGYYYPYRGYHKYYYWGQGTQVTVSS”: the “polyreactivity (PSR sort gate)” value was “low polyreactivity”.
